Test results published in patent US11407811B2, “Fusion protein, preparation method therefor and use thereof” (JIANGSU RONGTAI BIOTECH CO., LTD., priority 2017, dated 2022).

Experiments:
lung cancer cell A549 = experiment: MTT assay, proliferation of lung cancer cell A549; assay type: cell-based
Description: (§1) The MTT assay was used to detect the inhibitory effect of the integrin blocker fusion protein obtained in Example 1 on the proliferation of various tumor cells, including melanoma cell B16F10, gastric cancer cell MGC-803, lung cancer cell A549, liver cancer cell Hep-G2, breast cancer cell MDA-MB-231, colon cancer cell HCT-116, human glioma U87, and cervical cancer cell Hela.
(§2) The tumor cells were cultured in a 5% CO2 incubator at 37° C. to a density of 90% or more, and collected by trypsinization. The cells were resuspended in the culture liquid and counted under a microscope. The cell concentration was adjusted to 3.0×10^4 cells/mL. The cell suspension was inoculated into a 96-well plate at 100 μL per well and cultured overnight in a 5% CO2 incubator at 37° C. […] After the cells were fully adhered, each dilution was added to a 96-well plate at 100 μL per well, respectively. […] 20 μL of 5 mg/mL MTT was added to each well of a 96-well plate, and incubation was continued for 4 hours. The medium was aspirated and 100 μL of DMSO per well were added to dissolve. The absorbance was measured at 570 nm with a microplate reader with a reference wavelength of 630 nm, and the proliferation inhibition (PI) was calculated. The formula is as follows: […]
(§3) where Ntest is the OD value of the test group and Ncontrol is the OD value of the blank control group.
(§4) The test was repeated 5 times independently. The results obtained from the test were calculated as mean±SD, and statistical t-test was performed. P<0.05 was considered as a significant difference, and P<0.01 was considered as an extremely significant difference.

tampon granuloma in rat = assay type: in vivo
Description: 40 parts of degreasing cotton, 30 mg for each part, were accurately weighed with an analytical balance and kneaded into balls having substantially the same shape and size, which were autoclaved at […] for 30 min and dried at 50° C. for further use.
40 male SD rats were randomly divided into 4 groups with 10 rats for each group. […] Rats were anesthetized with sodium pentobarbital (40 mg/kg) via intraperitoneal injection before administration. The abdominal coat was cut off, and the skin of middle of the lower abdomen was cut under sterile conditions. The incision was about 1 cm long and the subcutaneous tissue was expanded with a vascular clamp. A sterile dry tampon was subcutaneously implanted into one side of the groin, the incision was sutured, and an appropriate amount of amoxicillin was spread at the incision to prevent infection. After the surgery was finished, the groups were administered once by injection from the day of surgery (EDSM needed to be administered twice a day). The rats were sacrificed by cervical dislocation at the 24th hour after administration, the inguinal skin was cut, the tampon was taken out together with the surrounding granulation tissue and the surrounding tissue was removed. After drying for additional 48 h in an oven at 60° C., the weight was accurately weighed. The granuloma weight was calculated: granuloma weight (mg/100 g body weight)=net weight of granulation (mg)/rat body weight (100 g).

[1] = tested on: angiogenesis of chicken embryo chorioallantoic membrane; experiment: Chicken embryo chorioallantoic membrane (CAM) angiogenesis assay; assay type: in vivo; settings: for Blood vessel number / PI: CAM, 72 hours
Excerpt: In this study, CAM assay was used to investigate the activity of fusion protein I, protein II, protein III, protein IV, and protein V to inhibit angiogenesis in vivo. The study has shown that the biosynthesis rate of collagen reached the maximum on the 8th to 11th day of chicken embryo development, which was the most vigorous stage of angiogenesis, and the body's immune system had not yet been fully established at that time, and thus the chicken embryos developed to the 8th day was selected to be administered. […] The following steps were used.
(1) The White Leghorn chicken embryos on day 6 were cultured in a 37° C. incubator at 60%-70% humidity for two days.
(2) A 1.0 cm×1.0 cm window was drilled above the chicken embryo air sac, and the inner membrane was torn off with forceps to expose the chorioallantoic membrane. Lens paper having a diameter of 5 mm was used as a loading carrier, and was placed on the chorioallantoic membrane of the chicken embryo air sac. Filter paper with PBS was used as a blank group, and the administration group was added with different doses of fusion protein.
(3) The chicken embryo air sac was sealed with a sterile transparent tape, and after culturing at 37° C. for 72 hours, the chicken embryo air sac was opened, and a fixative (formaldehyde:acetone=1:1) was added for fixation for 15 minutes. The chorioallantoic membrane to which the lens paper was adhered was taken out, the distribution of the new blood vessels was observed, and the new blood vessels were counted and photographed. Five replicates were set for each dose and the results were statistically analyzed.

[2] = tested on: breast cancer cell MDA-MB-231; experiment: MTT assay, proliferation of breast cancer cell MDA-MB-231; assay type: cell-based
Description: as §1, §2, §3, §4

B1: Protein II: IgG2-Fc linked to antiangiogenesis polypeptide EDSM-Y via a flexible linker; SEQ ID NO: 17 (protein)
chain: ERKCCVECPPCPAPPVAGPSVFLFPPKPKDTLMISRTPEVTCVVVDVSHEDPEVQFNWYVDGVEVHNAKTKPREEQFNSTFRVVSVLTVVHQDWLNGKEYKCKVSNKGLPAPIEKTISKTKGQPREPQVYTLPPSREEMTKNQVSLTCLVKGFYPSDISVEWESNGQPENNYKTTPPMLDSDGSFFLYSKLTVDKSRWQQGNVFSCSVMHEALHNHYTQKSLSLSPGKGGGGSGGGGSGGGGSFQPVLHLVALNSPLSGGMRGIRGADFQCFQQARAVGLAGTFRAGGGGRGD
Lung cancer cell A549; dose 1 μg/mL
  A570 nm/A630 nm: 0.8885 ± 0.0374
  PI (%): 8.28%
Lung cancer cell A549; dose 2 μg/mL
  A570 nm/A630 nm: 0.7933 ± 0.0253
  PI (%): 18.11%
Lung cancer cell A549; dose 4 μg/mL
  A570 nm/A630 nm: 0.7005 ± 0.0396
  PI (%): 27.69%
Lung cancer cell A549; dose 8 μg/mL
  A570 nm/A630 nm: 0.6325 ± 0.0215
  PI (%): 34.71%
Lung cancer cell A549; dose 16 μg/mL
  A570 nm/A630 nm: 0.5923 ± 0.0192
  PI (%): 38.86%
Lung cancer cell A549; dose 16 μg/mL, listed as protein II
  PI (%): about 40%
Lung cancer cell A549; dose 32 μg/mL
  A570 nm/A630 nm: 0.5006 ± 0.0347
  PI (%): 48.32%
Lung cancer cell A549; dose 64 μg/mL
  A570 nm/A630 nm: 0.4106 ± 0.0286
  PI (%): 57.61%
Lung cancer cell A549; dose 128 μg/mL
  A570 nm/A630 nm: 0.2008 ± 0.0147
  PI (%): 79.27%
Lung cancer cell A549; dose 256 μg/mL
  A570 nm/A630 nm: 0.1165 ± 0.0159
  PI (%): 87.97%
Tampon granuloma in rat; effective dose of 64 mg/kg, compared with the blank model group
  inhibition of tampon granuloma in rat: could significantly inhibit tampon granuloma in rat
Tampon granuloma in rat; rat, 64 mg/kg, injection
  GranuLoma (mg)/Weight (100 g): 0.23 ± 0.05 mg/100 g
  PI (%): 55.77%
Tampon granuloma in rat; rat, in vivo, 64 mg/kg
  Weight gain: 32.16 ± 10.13 g
[1]; 8 μg
  Blood vessel number: 102 ± 10
  PI: 17.07%
[1]; 32 μg
  Blood vessel number: 83 ± 11
  PI: 32.52%
[1]; 128 μg
  Blood vessel number: 66 ± 7
  PI: 46.34%
[1]; high dose
  inhibitory effect on angiogenesis of CAM: ~50%
[2]; dose 1 μg/mL
  A570 nm/A630 nm: 0.9859 ± 0.0397
  PI (%): 5.09%
[2]; dose 2 μg/mL
  A570 nm/A630 nm: 0.9552 ± 0.0419
  PI (%): 8.05%
[2]; dose 4 μg/mL
  A570 nm/A630 nm: 0.9150 ± 0.0283
  PI (%): 11.92%
[2]; dose 8 μg/mL
  A570 nm/A630 nm: 0.8806 ± 0.0345
  PI (%): 15.23%
[2]; dose 16 μg/mL
  A570 nm/A630 nm: 0.8110 ± 0.0298
  PI (%): 21.93%
[2]; dose 32 μg/mL
  A570 nm/A630 nm: 0.7546 ± 0.0274
  PI (%): 27.36%
[2]; dose 64 μg/mL
  A570 nm/A630 nm: 0.6945 ± 0.0326
  PI (%): 33.14%
[2]; dose 128 μg/mL
  A570 nm/A630 nm: 0.6589 ± 0.0287
  PI (%): 36.57%
[2]; dose 256 μg/mL
  A570 nm/A630 nm: 0.6012 ± 0.0311
  PI (%): 42.13%
